According to patent publication US20220356245A1 (FORTY SEVEN, published 2022):
Changes are numbered by the printed parent chain. Names and notes keep the numbering of the source. Where two headings read alike, the source gives them in different places.

Key:
[1] = target: T1, hu-sCD47-6His; extracellular domain of human CD47 antigen with 6His-tag (human); experiment: SPR Biacore
T1 construct: also called hCD47-his; soluble hCD47
From the text: (§1) An anti-human or anti-mouse IgG (Fc) was first immobilized on the surface of Serie S Sensor Chips CM5 using the human or mouse antibody capture and amine coupling kits, following the manufacturer's instructions (GE Healthcare). […] The mouse, chimerized or humanized antibodies to be tested were then captured onto the appropriate anti-mouse or anti-human IgG surface in all flow cells except flow cell 1 used as control, at concentration and contact time adjusted so that ˜300 RU were captured on the surface. Binding kinetics were studied by passing increasing concentrations of hCD47-his in a series of five 10 minute injections through all flow cells at a rate of 30 μL/min. […] Following the final injection, buffer was passed across each flow cell for 60 minutes (mouse) or 30 minutes (human) to monitor the dissociation of bound antigen. Regeneration of the binding surface was carried out at the end of the cycle by flowing 3 M MgCl₂ for 60 s at 20 μL/min followed by 10 mM glycine-HCl, pH 1.7 for 180 s at 10 μl/min (for human) or by flowing 10 mM glycine-HCl, ph 1.7 for 360 s at 10 μl/min (for mouse). A second cycle with the same antibodies but no antigen was run as a control. Kinetics binding constants were estimated by non-linear fitting of the sensogram data to the 1:1 binding model provided by the Biacore T200 evaluation software.

[2] = target: T2, human CD47 (hCD47) expressed on cells (human, UniProt Q08722 19-323); experiment: flow cytometry, Raji cells, competition with hSIRPα
T2 construct: Transfected CHO cells or endogenous CD47 of human cells; also called CHO-hCD47; CD47 on Raji cells

[3] = target: T2, human CD47 (hCD47) expressed on cells; experiment: flow cytometry, Raji cells
[4] = target: T2, human CD47 (hCD47) expressed on cells; experiment: flow cytometry on Raji cells, hIgG4 format: inhibition of hSIRPα binding to hCD47
[5] = target: T2, human CD47 (hCD47) expressed on cells; experiment: flow cytometry, Raji cells, competition with hSIRPα; remark: listed apart in the source
[6] = target: T2, human CD47 (hCD47) expressed on cells; experiment: flow cytometry, Raji cells; remark: listed apart in the source
[7] = target: T2, human CD47 (hCD47) expressed on cells; experiment: flow cytometry on Raji cells, hIgG4 format, delta MFI
[8] = target: T1, hu-sCD47-6His; extracellular domain of …; experiment: SPR Biacore; remark: listed apart in the source
From the text: as §1

[9] = target: T2, human CD47 (hCD47) expressed on cells; experiment: flow cytometry, Raji cells, competition with hSIRPα; remark: listed apart in the source
[10] = target: T2, human CD47 (hCD47) expressed on cells; experiment: flow cytometry on Raji cells, hIgG4 format: inhibition of hSIRPα binding to hCD47; remark: listed apart in the source
[11] = target: T1, hu-sCD47-6His; extracellular domain of …; experiment: SPR Biacore; head read as x 10^-4
From the text: as §1

[12] = target: T1, hu-sCD47-6His; extracellular domain of …; experiment: SPR Biacore; remark: listed apart in the source
From the text: as §1

[13] = target: T3, mouse CD47 (mCD47) expressed on CHO cells (mouse, UniProt Q61735 19-303); experiment: flow cytometry, CHO-mCD47 cells (not shown)
T3 construct: whole, on cells; also called CHO-mCD47
T3 sequence (looked up): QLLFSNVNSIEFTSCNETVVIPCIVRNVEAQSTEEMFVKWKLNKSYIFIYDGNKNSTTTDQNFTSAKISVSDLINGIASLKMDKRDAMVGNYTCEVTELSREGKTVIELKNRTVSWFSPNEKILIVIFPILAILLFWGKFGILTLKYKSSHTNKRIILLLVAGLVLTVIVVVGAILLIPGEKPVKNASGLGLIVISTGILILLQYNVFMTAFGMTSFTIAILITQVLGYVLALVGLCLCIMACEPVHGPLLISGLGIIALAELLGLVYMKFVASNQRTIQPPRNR

[14] = target: T2, human CD47 (hCD47) expressed on cells; experiment: flow cytometry on Raji cells, hIgG4 format, delta MFI; remark: listed apart in the source
[15] = target: T2, human CD47 (hCD47) expressed on cells; experiment: flow cytometry, Raji cells; remark: listed apart in the source
[16] = target: T2, human CD47 (hCD47) expressed on cells; experiment: cell-based or functional assay
[17] = target: T1, hu-sCD47-6His; extracellular domain of …; experiment: SPR Biacore T200, antibody captured, hCD47-his analyte;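 note: antibodies captured on anti-IgG (Fc) CM5 chip, five sequential 10 min antigen injections at rising concentrations, reference flow cell and antigen-free cycle as controls, 1:1 model fit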
From the text: as §1

[18] = target: T2, human CD47 (hCD47) expressed on cells; experiment: flow cytometry, hCD47-CHO cells, competition with His-hSIRPα
Method: Human CD47-transfected cells (3×10⁵ cells/well of 96-well plate) were first incubated at +4° C. for 30 minutes with serial dilutions of anti-CD47 antibodies or isotype control antibody (in mIgG2a or mIgG1 format). […] The percentage inhibition was plotted against antibody concentration and the IC50 values were calculated using a nonlinear regression analysis model of the GraphPad Prism software.

[19] = target: T2, human CD47 (hCD47) expressed on cells; experiment: flow cytometry, Raji cells; remark: listed apart in the source
Method: Raji cells (ATCC-CLL-86; 2×10⁵ cells/well of 96-well plate) were first incubated at +4° C. for 30 minutes with serial dilutions of anti-CD47 antibodies or control isotype antibody (in mIgG2a or mIgG1 format). The cells were then washed and incubated for 30 minutes at +4° C. with a PE-conjugated F(ab)′2 goat anti-mouse IgG antibody ( 1/100 dilution, Beckman Coulter). After washings, the fluorescence of the cells was analyzed by flow cytometry on an Accuri-C6 flow cytometer (BD Biosciences).
The delta of MFI, representing the difference between the intensity measured with the tested antibody and the intensity in the absence of antibody, was calculated for each antibody concentration and the values were plotted against the antibody concentrations. The EC50 values were then calculated by using a nonlinear regression analysis model of the GraphPad Prism software.

[20] = target: T2, human CD47 (hCD47) expressed on cells; experiment: flow cytometry, Raji cells, competition with His-hSIRPα
Method: The percent inhibition was plotted against antibody concentration and the IC50 values were calculated by using a nonlinear regression analysis model of the GraphPad Prism software.

[21] = target: T3, mouse CD47 (mCD47) expressed on CHO …; experiment: flow cytometry, CHO-mCD47 cells

B1: h22-VH3-VL3 (candidate 22.11) (antibody, human IgG4 S228P, kappa, V domains shown)
VH: QVQLQESGAEVKKPGASVKVSCKASGYTFTTYWMHWVRQAPGQGLEWMGMIHPNSGTTNYNEKFKSRVTMTRDTSTSTVYMELSSLRSEDTAVYYCTRSHYYDGHFSYWGQGTLVTVSS
VL: EIVLTQSPDSLAVSLGERATINCKSSQSLLNSRTRKNYLAWYQQKAGQSPKLLIYWASTRESGVPDRFSGSGSGTDFTLTIDSLQAEDVAVYYCKQSYNLWTFGGGTKVEIKR
notes: hIgG4-S228P/kappa
- Kd [1]: 10.9 nM
- koff [1]: 0.000306 s⁻¹
- kon [1]: 28400 M⁻¹ s⁻¹
- IC50 [2]: 0.096 µg/mL
- EC50 [3]: 0.139 µg/mL

B2: h22-VH4-VL4 (candidate 22.16) (antibody, human IgG4 S228P, kappa, V domains shown)
VH: B1 VH with Q5V, E6Q, A24G, M70L, T76I, V79A, S85R, R87T, E89D, L114M
VL: DIVMTQSPDSLPVSLGERATINCKSSQSLLNSRTRKNYLAWYQQKPGQPPKLLIYWASTRESGVPDRFTGSGSGTDFTLTISALQAEDVAVYYCKQSYNLWTFGQGTRLEIKR
notes: hIgG4-S228P/kappa
- Kd [1]: 9.37 nM
- koff [1]: 0.000263 s⁻¹
- kon [1]: 28200 M⁻¹ s⁻¹
- IC50 [2]: 0.116 µg/mL
- EC50 [3]: 0.184 µg/mL

B3: h22-VH4-VL3 (candidate 22.15) (antibody, human IgG4 S228P, kappa, V domains shown)
VH: B1 VH with Q5V, E6Q, A24G, M70L, T76I, V79A, S85R, R87T, E89D, L114M
VL: B1 VL
notes: hIgG4-S228P/kappa
- Kd [1]: 12.1 nM
- koff [1]: 0.000351 s⁻¹
- kon [1]: 29100 M⁻¹ s⁻¹
- IC50 [2]: 0.098 µg/mL
- EC50 [3]: 0.124 µg/mL

B4: h22-VH3-VL4 (candidate 22.12) (antibody, human IgG4 S228P, kappa, V domains shown)
VH: B1 VH
VL: B2 VL
notes: hIgG4-S228P/kappa
- Kd [1]: 10 nM
- koff [1]: 0.000252 s⁻¹
- kon [1]: 25200 M⁻¹ s⁻¹
- IC50 [2]: 0.116 µg/mL
- EC50 [3]: 0.108 µg/mL

B5: h20-H3-L3Y (candidate 20.28), hIgG4-S228P (antibody, V domains shown)
VH: QVQLVQSGAEVKKPGASVKVSCKASGYSFTDYYINWVRQAPGQGLEWMGRIYPGIGNTYYNKKFKGRVTVTRDTSISTAHMELSSLRSDDTAVYYCARGHYGRGMDYWGQGTAVTVSS
VL: EIVLTQSPDSLAVSLGERATINCKSSQSLLNSIDQKNYLAWYQQKAGQSPKLLIYYASTKESGVPDRFSGSGSGTDFTLTIDSLQAEDVAVYYCQQHYSTPWTFGGGTKVEIKR
notes: also called H20-VH3-VL3,Y
- IC50 (read off the curve) [4]: ~0.3 µg/mL
- IC50 [5]: 0.17 µg/mL
- EC50 [6]: 0.117 µg/mL
- EC50 (read off the curve) [7]: ~0.1 µg/mL
- Kd [8]: 2.32 nM
- koff [8]: 0.000573 s⁻¹
- kon [8]: 264000 M⁻¹ s⁻¹

B6: h20-VH2-VL5 (candidate 20.10) (antibody, human IgG4 S228P, kappa, V domains shown)
VH: B5 VH with V70I, I76A, H80Y, D89E, A113L
VL: B5 VL with E1D, L4M, A46P, S49P, Y56F, D82S, S83G, Y93F, K113R
notes: hIgG4-S228P/kappa; also called h20-H2-L5
- IC50 [9]: 0.051 µg/mL
- IC50 (read off the curve) [10]: ~0.2 µg/mL
- koff [11]: 0.000634 s⁻¹
- Kd [12]: 5.85 nM
- kon [12]: 118000 M⁻¹ s⁻¹
- binding result [13]: no binding
- EC50 (read off the curve) [14]: ~0.1 µg/mL
- EC50 [15]: 0.191 µg/mL

B7: h20-VH3-VL3 (candidate 20.13) (antibody, human IgG4 S228P, kappa, V domains shown)
VH: B5 VH
VL: B5 VL with Y56F
notes: hIgG4-S228P/kappa; also called h20-H3-L3
- IC50 [9]: 0.173 µg/mL
- IC50 (read off the curve) [4]: ~0.2 µg/mL
- koff [11]: 0.000594 s⁻¹
- Kd [12]: 3.05 nM
- kon [12]: 214000 M⁻¹ s⁻¹
- binding result [13]: no binding
- EC50 [15]: 0.147 µg/mL
- EC50 (read off the curve) [7]: ~0.08 µg/mL

B8: 2A1 (mouse antibody from Inhibrx) (antibody, V domains shown)
VH: EVQLQQSGAELVRSGASVKLSCTASGFNIKDYYLHWVKQRPEQGLEWIGWIDPDNGDTEFAPKFQGKATMTADTSSNTAYLQLSSLTSEDTAVYYCNAAYGSSSYPMDYWGQGTSVTV
VL: DIKMTQSPSSLYASLGERVTITCKASQDIHRYLSWFQQKPGKSPKILIYRANRLVDGVPSRFSGSGSGQDYSLTISSLEYEDMGIYYCLQYDEFPYTFGGGTKLEMK
- Phagocytic index, Raji cells and human macrophages, antibody at 0.125 µg/mL [16]: 113 Raji cells ingested per 100 macrophages
- Kd [17]: 0.127 nM
- koff [17]: 4.99e-05 s⁻¹
- kon [17]: 401000 M⁻¹ s⁻¹
- IC50 [18]: 0.739 µg/mL
- EC50 [19]: 0.058 µg/mL

B9: Candidate 20, chimeric hIgG format (hIgG1 or hIgG4) (antibody, V domains shown)
VH: QVQLKQSGAELVRPGASVKLSCKASGYSFTDYYINWVKQRPGQGLEWIARIYPGIGNTYYNKKFKGKATLTAEKSSSTAYMQLNSLTSEDSAVYFCARGHYGRGMDYWGQGTSVTVSS
VL: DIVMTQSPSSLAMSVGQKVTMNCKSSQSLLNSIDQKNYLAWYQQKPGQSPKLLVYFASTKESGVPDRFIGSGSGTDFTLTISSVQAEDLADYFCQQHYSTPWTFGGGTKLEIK
notes: also called Candidate 20 (hIgG format)
- IC50 [20]: 0.11 µg/mL

B10: Candidate 22, chimeric hIgG format (hIgG1 or hIgG4) (antibody, V domains shown)
VH: QVQLQQPGAELVKPGASVKLSCKASGYTFTTYWMHWVKQRPGQGLEWIGMIHPNSGTTNYNEKFKSKATLTVDKSSSSTYMQLSSLTSEDSAVYYCTRSHYYDGHFSYWGQGTLVTVSA
VL: DIVMSQSPSSLAVSAGEKVTMSCKSSQSLLNSRTRKNYLAWYQQKPGQSPKLLIYWASTRESGVPDRFTGSGSGTDFTLTISSVQAEDLAVYYCKQSYNLWTFGGGTRLEIK
notes: also called Candidate 22 (hIgG format)
- IC50 [20]: 0.233 µg/mL

B11: Candidate 14 (VT008-AL6-14G1-16K1), mouse IgG (antibody, V domains shown)
VH: QVQLQQPGAELVKPGASLRVSCKASGYTFTNYWMYWVRQRPGRGLEWIGWIDPNSGGTKYNEKFKSKATLTVDKPSSTAYMQLSSLTSEDSAVYNCARGGYTMDYWGQGTSVTVSS
VL: DVVMTQTPLSLPVSLGDQASISCRASQSLVHSNGNTYLHWYLQKPGQSPKLLIYKVSNRFSGVPDRFSGSGSGTDFTLKISRVEAEDLGVYFCSQSTHVPLTFGAGTKLELK
notes: Recombinant mouse IgG2a or mIgG1 format, by assay
- Phagocytic index, Raji cells and human macrophages, antibody at 0.125 µg/mL [16]: 78.9 Raji cells ingested per 100 macrophages
- Kd [17]: 3.85 nM
- koff [17]: 0.00337 s⁻¹
- kon [17]: 874000 M⁻¹ s⁻¹
- IC50 [18]: 0.737 µg/mL
- EC50 [19]: 0.055 µg/mL

B12: Candidate 7 (VT008-AL5-10G7-10K7), mouse IgG (antibody, V domains shown)
VH: QVQLQQPGAELVMPGSSVKLSCKTSGYTFTKYWMHWVKRRPGQGLEWIGEINPSDTYTNYNQKFKGKSTLTVDKSSSTAYMQLSSLTSEDSAVYFCARVATMVARGFAYWGQGTLVTVSA
VL: DIVMTQSHKFMSTSVGDRVSITCKASQDVSGAVVWYQEKPGQSPNLLIYLATYRYTGVPDRFTGSGSGTDFTLTIRSVQAEDMAVYYCQQYYSIPWTFGGGTKLEIK
- Phagocytic index, Raji cells and human macrophages, antibody at 0.125 µg/mL [16]: 124 Raji cells ingested per 100 macrophages
- Kd [17]: 1.94 nM
- koff [17]: 0.00037 s⁻¹
- kon [17]: 190000 M⁻¹ s⁻¹
- IC50 [18]: 0.657 µg/mL
- binding result [21]: no binding (tested: 7.3 µg/mL highest concentration)
- EC50 [19]: 0.058 µg/mL

B13: Candidate 33, chimeric hIgG format (hIgG1 or hIgG4) (antibody, V domains shown)
VH: LVQLQQSGPELVKPGTSVKISCRSSGYTFTDYYINWVQQRPGQGLEWVGWIFPGSGLTYYNKKFKGKATLSVDKSSNTAYMLLSSLTSEDSAVYFCARPYYGSRWDYTMDYWGQGTSVTVSS
VL: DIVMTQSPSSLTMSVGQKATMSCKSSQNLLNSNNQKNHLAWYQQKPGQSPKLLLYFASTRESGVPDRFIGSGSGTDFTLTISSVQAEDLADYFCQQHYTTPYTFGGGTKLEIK
notes: also called Candidate 33 (hIgG format)
- IC50 [20]: 0.11 µg/mL
